One assay has as its system 6-OHDA rats. The assay can be described thus: 6-OHDA rat model, apomorphine-induced rotational behaviour. The format is in vivo. The conditions noted are these: injection in left striatum; apomorphine 0.5 mg/kg s.c.; rotations counted over 10 minutes; versus controls. The procedure: 6-Hydroxydopamine (or 6-OHDA) animal model of dyskinesia and oxidative stress: The 6-OHDA model was chosen for this study as this model is characterized by oxidative stress and degeneration of DA neurons, similar to the condition in human idiopathic PD patients and is a well-known preclinical animal model of PD.
6-OHDA animals, male Sprague-Dawley rats from Charles River (Raleigh, N.C., USA), were prepared by hemi-lateral lesioning of the A9 dopaminergic pathway by injecting 6-OHDA toxin in the substantia nigra par compacta (SNc) region of the rat brain. This unilateral nigrostriatal degeneration cause assymetry in motor behaviours due to imbalanced dopimanergic activity between striata. […] Baseline rotational behavior and locomoter testing were performed before surgical intervention.
The protocol for lesioning is synonymous with our 6-OHDA stereotaxic injection protocol found in Modi et al., (1996). Rats were sent to the McMaster University animal facility and allowed to acclimatize to the colony room for 1 week following arrival. Each rat was handled by the same researcher daily for 7 days before the start of the experiment. Animals were then tested for baseline apomorphine-induced rotations (tested during light hours), and locomotor activity (tested during dark hours) under apomorphine challenge treatment. Animals were then split into groups and injected with CRP40, CRP40 fragments and peptides, and controls. Animals were housed and tested in compliance with the guidelines described in the Guide to the Care and Use of Experimental Animals (Canadian Council on Animal Care, 1984; 1993).
6-OHDA rats were injected in the left striatum with one of the various fragments via stereotaxic surgery. […] Coordinates for striatal injections of treatment are as follows: A/P +0.7 mm, M/L +3.0 mm, and D/V −5.0 mm. A 25 μl Hamilton syringe with a 22 gauge 2 inch blunt needle was used to inject treatments at a rate of 1 μl/min.
Apomorphine injection causes full body rotational behaviour in the direction contralateral to the 6-OHDA lesion. The total number of rotations per fixed time period is used as a measure of improving or worsening symptomology. A holding chamber in which the animal is confined to a circular shaped floor is used to count rotations, as this is an optimal arrangement for these experiments compared to an open field box. 0.5 mg/ml Apomorphine (Sigma: A4393) was dissolved in 0.9% saline with 0.1% ascorbic acid. Animals were injected subcutaneously with apomorphine (0.5 mg/kg body weight). Animals were placed in a clear plastic cylindrical holding tank and allowed 5 minutes for habituation. Following habituation, 10 minutes was allotted and a cell counter was used to record the number of rotations.

Assay [1] in a line: Competitive radioligand binding of [3H]-DA in the presence of cold DA. To be noted: 1 nM radioligand, 10 μg protein, range of unlabeled DA. The protocol:
(§1) Methods. The ability of cold DA to displace bound tritiated dopamine ([3H]-DA) in CRP40, P2P4, or heat-shock protein 47 (a control heat-shock protein that plays a role in collagen synthesis) was assessed by competitively binding [3H]-DA in the presence of different concentrations of unlabeled DA or apomorphine (in 0.1% ascorbic acid) using the same methodology as in (Gabriele et al., 2009). […] At the end of incubation, the bound and free ligands were separated by vacuum filtration through Whatman GF/B filters. The filters were washed with 3×5 ml of Tris-EDTA buffer and the radioactive counts were determined on a Beckman scintillation counter. The Assay Buffer was prepared by adding the following components to 500 ml of double distilled water: 25 ml 1M Tris-HCl (pH 8; 50 mM), […] (1 mM), 100 mM PMSF in ethanol (0.1 mM), 0.508 g MgCl2·6H2O (5 mM), 0.0077 g DTT (0.1 mM), 0.050 g Bacitracin (100 μg/ml), and 0.0025 g
(§2) Soybean Trypsin (5 μg/ml). The final pH was adjusted to 7.4. The filtration Buffer was prepared by adding the following components to 2 L of double distilled water: 100 ml 1M Tris-HCl (pH 8; 50 mM), and 4 ml 500 mM EDTA (1 mM). The final pH was adjusted to 7.4. Statistical analysis of the data was performed utilizing Graph Pad Prism 6.0 software. […]

The nature of assay [2]: Competitive radioligand binding of [3H]-DA in the presence of cold apomorphine. The conditions noted are these: 1 nM radioligand, 10 μg protein, range of unlabeled apomorphine. The protocol:
as §1, §2

Assay [3] deals with SH-SY5Y cells. In words: OxiSelect Intracellular ROS Assay, H2O2-induced oxidative stress in transfected cells. The conditions noted are these: overexpression in transfected SH-SY5Y cells; 500 μM H2O2; normal cells had increased ROS. The format is cell-based. The protocol: The ability of CRP40- and mortalin-transfected SH-SY5Y cells to protect against the harmful effects of mitochondrial ROS in comparison to normal non-transfected SH-SY5Y cells was measured using the OxiSelect™ Intracellular ROS Assay Kit (Green Fluorescence). H2O2 treatment was used to induce oxidative stress in the assay. Increased fluorescence in this assay corresponded to greater ROS levels.

Assay [4] relates to SH-SY5Y cells. In words: ATP-Glo Bioluminometric Cell Viability Assay with MG-132 proteasomal inhibitor. The format is cell-based. To be noted: for preservation of ATP levels and cell viability under proteasomal stress: overexpression in SH-SY5Y cells, MG-132; for cell viability in basal condition versus normal non-transfected SH-SY5Y cells: no MG-132, p<0.0001. An excerpt:
The ability of CRP40- and mortalin-transfected SH-SY5Y cells to maintain mitochondrial homeostasis, specifically energy production and ATP levels, was examined using the ATP-Glo™ Bioluminometric Cell Viability Assay Kit. MG-132 was used to inhibit proteasomal function and cause increased oxidative stress, which would compromise mitochondrial function, as well as the processes of energy production. The quantitation of ATP levels was thus used as a measure of cell viability.
FIG. 7 summarizes the results of the adenosine triphosphate assays. […] Mortalin was used as a positive control in this assay. […] The data are representative of mean±S.D. of experiments for each condition performed twice, in triplicate.

“Also recorded” adds a separate entry of the source.

Regarding “P2P4: SEQ ID NO:5, 60-amino acid fragment spanning amino acids 95-154 of full-length CRP40 (6.6 kDa)”, the “rotational behaviour in the 6-OHDA rat model” value (from here on “rotational behaviour”) in the assay with 6-OHDA rats is given as “reduction of rotational behavior; also recorded: alleviate rotational symptoms; also recorded: as effective as full-length CRP40”. Moreover, the “specific binding of [3H]-DA in competition with cold DA (dopamine binding)” value in assay [1] is recorded as “does not bind dopamine at all”. For the same molecule, in assay [2], the “specific binding of [3H]-DA in competition with cold apomorphine (apomorphine binding)” value is listed as “does not bind; also recorded: do not bind apomorphine”.
In the case of “mortalin: ubiquitously expressed molecular chaperone of 649 amino acids encoded by HSPA9B; positive control in the ATP assay [reference compound]”, the “ROS levels under oxidative stress versus normal non-transfected SH-SY5Y cells” value in the assay on SH-SY5Y cells [3] is “partially preserves mitochondrial homeostasis and ROS levels”. In addition, in the assay with SH-SY5Y cells [4], the “preservation of ATP levels and cell viability under proteasomal stress” value was “helps to maintain intracellular ATP levels and energy production; also recorded: partially preserve ATP levels and cell viability”; the “cell viability in basal condition versus normal non-transfected SH-SY5Y cells” value is recorded as “significantly lower”.

B1: HSP47: heat shock protein 47, a 47 kDa collagen-specific chaperone used as negative control (protein, UniProt P50454 19-418, looked up)
Serpin H1: AEVKKPAAAAAPGTAEKLSPKAATLAERSAGLAFSLYQAMAKDQAVENILVSPVVVASSLGLVSLGGKATTASQAKAVLSAEQLRDEEVHAGLGELLRSLSNSTARNVTWKLGSRLYGPSSVSFADDFVRSSKQHYNCEHSKINFRDKRSALQSINEWAAQTTDGKLPEVTKDVERTDGALLVNAMFFKPHWDEKFHHKMVDNRGFMVTRSYTVGVMMMHRTGLYNYYDDEKEKLQIVEMPLAHKLSSLIILMPHHVEPLERLEKLLTKEQLKIWMGKMQKKAVAISLPKGVVEVTHDLQKHLAGLGLTEAIDKNKADLSRMSGKKDLYLASVFHATAFELDTDGNPFDQDIYGREELRSPKLFYADHPFIFLVRDTQSGSLLFIGRLVRPKGDKMRDEL
Turning to B1, the “rotational behaviour” value with 6-OHDA rats is “does not elicit a correction of rotational behaviour”.

B2: P1P3: SEQ ID NO:2, P1P3 fragment of human CRP40 (11.1 kDa) (protein, listed as Homo sapiens)
chain: MDSSGPKHLNMKLTRAQFEGIVTDLIRRTIAPCQKAMQDAEVSKSDIGEVILVGGMTRMPKVQQTVQDLFGRAPSKAVNPDEAVAIGAAIQGGVLA
Turning to B2, the “rotational behaviour” value in the assay on 6-OHDA rats was “not effective”.

B3: P1P5: SEQ ID NO:4, P1P5 fragment of human CRP40 (27 kDa) (protein, listed as Homo sapiens)
chain: MDSSGPKHLNMKLTRAQFEGIVTDLIRRTIAPCQKAMQEVSKSDIGEVILVGGMTRMPKVQQTVQGLFGRAPSKAVNPDEAVAIGAAIQGGVLAGDVTDVLLLDVTPLSLGIETLGGVFTKLINRNTTIPTKKSQVFSTAADGQTQVEIKVCQGEREMAGDNKLLGQFTLIGIPPAPRGVPQIEVTFDIDANGIVHVSAKDKGTGRERQIVIQSSGGLSKDDIEENMVKNAEKYAEEDRRKKERV
Turning to B3, the “rotational behaviour” value with 6-OHDA rats is on record as “reduction of rotational behavior; also recorded: effective”.

B4: CRP40: SEQ ID NO:1, full-length human catecholamine-regulated protein, 40 kDa molecular chaperone, splice variant of mortalin (protein, listed as Homo sapiens)
chain: MDSSGPKHLNMKLTRAQFEGIVTDLIRRTIAPCQKAMQDAEVSKSDIGEVILVGGMTRMPKVQQTVQDLFGRAPSKAVNPDEAVAIGAAIQGGVLAGDVTDVLLLDVTPLSLGIETLGGVFTKLINRNTTIPTKKSQVFSTAADGQTQVEIKVCQGEREMAGDNKLLGQFTLIGIPPAPRGVPQIEVTFDIDANGIVHVSAKDKGTGREQQIVIQSSGGLSKDDIENMVKNAEKYAEEDRRKKERVEAVNMAEGIIHDTETKMEEFKDQLPADECNKLKEEISKMRELLARKDSETGENIRQAASSLQQASLKLFEMAYKKMASEREGSGSSGTGEQKEDQKEEKQ
With B4, in the assay with 6-OHDA rats, the “rotational behaviour” value is reported as “alleviate rotational symptoms; also recorded: could correct movement impairments”. Besides, the “specific binding of [3H]-DA in competition with cold DA (dopamine binding)” value in assay [1] is “binds DA with high capacity and low affinity; also recorded: binds dopamine with high capacity and low affinity”. Further, in assay [2], the “specific binding of [3H]-DA in competition with cold apomorphine (apomorphine binding)” value was “binds apomorphine; also recorded: binds dopamine”. Besides, the “ROS levels under oxidative stress versus normal non-transfected SH-SY5Y cells” value in the assay with SH-SY5Y cells [3] was “partially preserves mitochondrial homeostasis and ROS levels”. Moreover, in the assay on SH-SY5Y cells [4], the “preservation of ATP levels and cell viability under proteasomal stress” value was “helps to maintain intracellular ATP levels and energy production; also recorded: partially preserve ATP levels and cell viability”; the “cell viability in basal condition versus normal non-transfected SH-SY5Y cells” value is on record as “significantly lower”.

The values above are taken from patent US20160052980A1, “CRP40 FRAGMENTS FOR THE TREATMENT OF NEUROLOGICAL DISORDERS” (CRP40 INC., priority 2013, published 2016).
